Experimental data taken from patent US20240082313A1, “PHARMACEUTICAL COMPOSITIONS AND THEIR METHODS OF USE” (The Trustees of Indiana University, priority 2021, published 2024).

B1: vinculin: vinculin recombinant protein (protein, UniProt Q64727 1-1066, looked up)
Vinculin: MPVFHTRTIESILEPVAQQISHLVIMHEEGEVDGKAIPDLTAPVAAVQAAVSNLVRVGKETVQTTEDQILKRDMPPAFIKVENACTKLVQAAQMLQSDPYSVPARDYLIDGSRGILSGTSDLLLTFDEAEVRKIIRVCKGILEYLTVAEVVETMEDLVTYTKNLGPGMTKMAKMIDERQQELTHQEHRVMLVNSMNTVKELLPVLISAMKIFVTTKNSKNQGIEEALKNRNFTVEKMSAEINEIIRVLQLTSWDEDAWASKDTEAMKRALASIDSKLNQAKGWLRDPNASPGDAGEQAIRQILDEAGKVGELCAGKERREILGTCKMLGQMTDQVADLRARGQGASPVAMQKAQQVSQGLDVLTAKVENAARKLEAMTNSKQSIAKKIDAAQNWLADPNGGPEGEEQIRGALAEARKIAELCDDPKERDDILRSLGEIAALTSKLGDLRRQGKGDSPEARALAKQVATALQNLQTKTNRAVANSRPAKAAVHLEGKIEQAQRWIDNPTVDDRGVGQAAIRGLVAEGHRLANVMMGPYRQDLLAKCDRVDQLTAQLADLAARGEGESPQARALASQLQDSLKDLKAQMQEAMTQEVSDVFSDTTTPIKLLAVAATAPPDAPNREEVFDERAANFENHSGRLGATAEKAAAVGTANKSTVEGIQASVKTARELTPQVISAARILLRNPGNQAAYEHFETMKNQWIDNVEKMTGLVDEAIDTKSLLDASEEAIKKDLDKCKVAMANIQPQMLVAGATSIARRANRILLVAKREVENSEDPKFREAVKAASDELSKTISPMVMDAKAVAGNISDPGLQKSFLDSGYRILGAVAKVREAFQPQEPDFPPPPPDLEQLRLTDELAPPKPPLPEGEVPPPRPPPPEEKDEEFPEQKAGEVINQPMMMAARQLHDEARKWSSKGNDIIAAAKRMALLMAEMSRLVRGGSGTKRALIQCAKDIAKASDEVTRLAKEVAKQCTDKRIRTNLLQVCERIPTISTQLKILSTVKATMLGRTNISDEESEQATEMLVHNAQNLMQSVKETVREAEAASIKIRTDAGFTLRWVRKTPWYQ
B2: enolase 1: enolase 1 recombinant protein (protein, UniProt P17182 2-434, looked up)
Alpha-enolase: SILRIHAREIFDSRGNPTVEVDLYTAKGLFRAAVPSGASTGIYEALELRDNDKTRFMGKGVSQAVEHINKTIAPALVSKKVNVVEQEKIDKLMIEMDGTENKSKFGANAILGVSLAVCKAGAVEKGVPLYRHIADLAGNPEVILPVPAFNVINGGSHAGNKLAMQEFMILPVGASSFREAMRIGAEVYHNLKNVIKEKYGKDATNVGDEGGFAPNILENKEALELLKTAIAKAGYTDQVVIGMDVAASEFYRSGKYDLDFKSPDDPSRYITPDQLADLYKSFVQNYPVVSIEDPFDQDDWGAWQKFTASAGIQVVGDDLTVTNPKRIAKAASEKSCNCLLLKVNQIGSVTESLQACKLAQSNGWGVMVSHRSGETEDTFIADLVVGLCTGQIKTGAPCRSERLAKYNQILRIEEELGSKAKFAGRSFRNPLAK

Key:
[1] = test system: EO771 mammary tumor cells; test: EdU assay; type: cell-based, mouse; conditions: inhibitor applied with iTS CM
Procedure: (§1) EdU assays. Two thousand cells were seeded in 96-well plates on day 1, CM was added on day 2, and cellular proliferation was examined using a fluorescence-based cell proliferation kit (CLICK-IT™ EdU ALEXA FLUOR™ 488 Imaging Kit; Thermo-Fisher, Waltham, MA, USA). After fluorescent labeling, the number of fluorescently labeled cells were counted and the ratio to the total number of cells was determined.
(§2) EdU assay. Using a procedure previously reported, approximately 1,000 cells were seeded in 96-well plates on day 1. CM was added on day 2 and cellular proliferation was examined with a fluorescence-based cell proliferation kit (CLICK-IT™ EdU ALEXA FLUOR™ 488 Imaging Kit; Thermo-Fisher, Waltham, MA, USA) on day 4. After fluorescent labeling, the number of fluorescently labeled cells was counted and the ratio to the total number of cells was determined.

[2] = test system: EO771 mammary tumor cells; test: TRANSWELL invasion assay; type: cell-based, mouse; conditions: inhibitor applied with iTS CM
Procedure: (§3) Invasion assay. The invasion capacity of cancer cells was determined using a 24-well plate, TRANSWELL® chambers (Thermo Fisher Scientific, Waltham, MA, USA) with […] pore size and MATRIGEL™. Cell invasion was measured in TRANSWELL® chambers with a coating including MATRIGEL™ (100 μg/ml). The cells in 200 μL serum-free DMEM were placed on the upper chamber and 800 μL iTS CM was added in the lower chamber. After 24 h, the cells that had invaded the lower side of the membrane were stained with Crystal Violet. At least five randomly chosen images were taken under a microscope, and the average number of stained cells that represented the relative invasion was determined.

adipose-derived MSCs = test: MTT-based viability of non-tumor cells; type: cell-based, human
Text: (§4) Variations in tumor selectivity among the predicted tumor-suppressing proteins. Tumor-suppressing proteins may inhibit the progression of tumor cells but not inhibit the progression of non-tumor cells. Using the MTT-based viability, tumor selectivity was defined as a ratio of (reduction in MTT-based viability of tumor cells) to (reduction in MTT-based viability of non-tumor cells). The tumor selectivity may be above one to remove tumor cells and a larger value may signify a reduction in the inhibition of the growth of non-tumor cells. The tumor selectivity was determined using three tumor cells (4T1.2 mouse mammary tumor cells, EO771 mammary tumor cells, and MDA-MB-231 breast cancer cells) and three non-tumor cells (adipose cells, MLO-A5 osteocytes, and murine MSCs). […] Table 2 provides the tumor selectivity of 4T1.2 Oct4 CM, 4T1.2 c-Myc CM, and 10 tumor-suppressing protein candidates.

4T1.2 cells [3] = test: TRANSWELL invasion assay; type: cell-based, mouse
Procedure: TRANSWELL® invasion assay. In a TRANSWELL® invasion assay, approximately 5×10^4 cells in 200 μL serum-free DMEM were placed on the upper TRANSWELL® chamber (Thermo Fisher Scientific, Waltham, MA, USA) with MATRIGEL™ (100 μg/ml), and 800 μL of CM was added in the lower chamber. After 48 h, the cells that had invaded the lower side of the membrane were stained with Crystal Violet. At least five randomly chosen images were taken, and the average number of stained cells was determined.

4T1.2 cells [4] = test: Western blot analysis; type: cell-based, mouse; conditions: for level of Kdm3a: 4T1.2 cells; for Lrp5, MMP9, Runx2, TGFβ, and Snail: recombinant protein applied extracellularly to 4T1.2 cells
Procedure: Western blot analysis. Cultured cells were lysed in a radio-immunoprecipitation assay (RIPA) buffer and proteins were fractionated by 10-15% SDS gels and electro-transferred to polyvinylidene difluoride (PVDF) transfer membranes (Millipore, Billerica, MA, USA). The membrane was incubated overnight with primary antibodies and then with secondary antibodies conjugated with horseradish peroxidase (Cell Signaling, Danvers, MA, USA). Antibodies against c-Myc, Oct4, Sox2, Klf4, Lrp5, Runx2, Snail, TGFβ, Eno1, Eef2, vinculin (Cell Signaling, Danvers, MA, USA), MMP9, NFATc1, cathepsin K (Santa Cruz, Dallas, TX, USA), TRAIL (Novus, Centennial, CO, USA), p53 (Invitrogen, Carlsbad, CA, USA), Hsp90ab1 (Abcam, Cambridge, UK), Kdm3a (Thermo-Fisher Scientific, Waltham, MA, USA) and β-actin as a control (Sigma, St. Louis, MO, USA) were employed. The level of proteins was determined using a SUPERSIGNAL™ west femto maximum sensitivity substrate (Thermo-Fisher Scientific, Waltham, MA, USA), and a luminescent image analyzer (LAS-3000, Fuji Film, Tokyo, Japan) was used to quantify signal intensities.

[5] = test system: 4T1.2 mouse mammary tumor cells; test: Tumor selectivity from MTT-based viability (tumor vs non-tumor cells); type: cell-based
Text: as §4

[6] = test system: MDA-MB-231 breast cancer cells; test: as above; type: cell-based, human
Text: as §4

[7] = test system: EO771 mammary tumor cells; test: as above; type: cell-based, mouse; conditions: tumor cells EO
Text: as §4

4T1.2 cells [8] = test: EdU assay; type: cell-based, mouse
Procedure: as §2

[9] = test system: TRAMP prostate tumor cells; test: TRANSWELL invasion assay; type: cell-based
Procedure: as §3

[10] = test system: PANC-1 pancreatic tumor cells; test: TRANSWELL invasion assay; type: cell-based, human; conditions: PANC-1 cells
Procedure: as §3

[11] = test system: PANC-1 pancreatic tumor cells; test: EdU assay; type: cell-based, human; conditions: PANC-1 cells, EdU-based
Procedure: as §1

EO771 cells = test: Western blot analysis; type: cell-based, mouse
Procedure: Western blot analysis. Cultured cells were lysed in a radio-immunoprecipitation assay buffer with protease inhibitors (Santa Cruz Biotechnology, Santa Cruz, CA, USA) and phosphatase inhibitors (Calbiochem, Billerica, MA, USA). After cell lysis, proteins were fractionated by 10-15% SDS gels and electro-transferred to polyvinylidene difluoride (“PVDF”) transfer membranes (Millipore, Billerica, MA, USA). After blocking 1 h with a blocking buffer (Bio-Rad), the membrane was incubated overnight with primary antibodies and then with secondary antibodies conjugated with horseradish peroxidase for 45 min (Cell Signaling, Danvers, MA, USA). Antibodies against β-catenin, cleaved-caspase 3, Runx2, Snail, Enolase-1 (Cell Signaling, Danvers, MA, USA), MMP9 (Santa Cruz, Dallas, TX, USA), TRAIL (Novus, Centennial, CO, USA), p53 (Invitrogen, Carlsbad, CA, USA), and β-actin as a control (Sigma, St. Louis, MO, USA), were employed. The level of proteins was determined using a SUPERSIGNAL™ west femto maximum sensitivity substrate (Thermo Scientific, Waltham, MA, USA), and a luminescent image analyzer (LAS-3000, Fuji Film, Tokyo, Japan) was used to quantify signal intensities.

EO771 tumor cells = test: MTT-based viability; type: cell-based, mouse
[12] = test system: EO771 mammary tumor cells; test: Wound-healing scratch assay; type: cell-based, mouse; conditions: EO771 cells
Procedure: Two-dimensional motility assay. A wound-healing scratch motility assay was performed to measure 2-dimensional cell motility. Cells were seeded in 12-well plates, after cell attachment, a plastic pipette tip was used to scratch a gap on the cell layer. Images of the cell-free scratch zone were obtained via an inverted microscope at 0 h, and the areas newly occupied with cells were determined 48 h after scratching. The areas were quantified with Image J (National Institutes of Health, Maryland, USA).
Scratch assay. A wound-healing scratch assay was conducted to evaluate 2-dimensional migratory behavior. Approximately 4×10^5 cells were seeded in 12-well plates. After cell attachment, a plastic pipette tip was used to scratch a gap on the cell layer. After the removal of the floating cells, CM was added. Images of the cell-free scratch zone were collected at 0 h, and the areas newly occupied with cells were determined 24-48 h after scratching. The areas were quantified with IMAGE J™ (National Institutes of Health, Bethesda, MD, USA).

[13] = test system: TRAMP prostate tumor cells; test: EdU assay; type: cell-based; conditions: EdU-based
Procedure: as §1

Molecule	MTT-based viability of non-tumor cells (adipose-derived MSCs)	TRANSWELL invasion (4T1.2 cells [3])	level of Kdm3a (4T1.2 cells [4])	Lrp5, MMP9, Runx2, TGFβ, and Snail (4T1.2 cells [4])	Tumor selectivity ([5]; non-tumor cells A5)	Tumor selectivity ([5]; non-tumor cells MSC)	Tumor selectivity ([6]; non-tumor cells A5)	Tumor selectivity ([6]; non-tumor cells MSC)	Tumor selectivity ([7]; non-tumor cells A5)	Tumor selectivity ([7]; non-tumor cells MSC)	EdU-based proliferation (4T1.2 cells [8])	also measured
Nc1cccc2c1C(=O)N(C1CCC(=O)NC1=O)C2=O (centres unmarked) [Pomalidomide]												inhibitory effect of β-catenin-overexpressing iTS CM on proliferation [1]: interfered with the inhibitory effect; inhibitory effect of β-catenin-overexpressing iTS CM on invasion [2]: interfered with the inhibitory effect
Hsp90ab1: heat shock protein 90 alpha family class B member 1 recombinant protein	elevated	reduced	reduced	downregulated	1.68	2.86	1.02	1.74	1.55	2.65		
B1		reduced	reduced	downregulated	0.99	1.57	1.13	1.43	0.67	0.89	reduced	Tumor selectivity ([5]; non-tumor cells Adipose): 1.43; Tumor selectivity ([6]; non-tumor cells Adipose): 1.88; Tumor selectivity ([7]; non-tumor cells Adipose): 1.27
B2	elevated	reduced	reduced	downregulated	1.48	3.30	3.11	6.94	3.29	7.34	reduced	invasion [9]: inhibited; invasion [10]: inhibited; proliferation [11]: inhibited; expression of MMP9, Runx2, and Snail (EO771 cells): reduced; expression of p53 and TRAIL (EO771 cells): elevated; MTT-based viability (EO771 tumor cells): significant decrease; scratch-based migration [12]: inhibited; proliferation [13]: inhibited
